Data set [1] can be described thus: in vitro. As to conditions: human, plasma, pH 7.4.
Protocol: (§1) The pooled frozen mouse, rat, monkey or human plasma is thawed in a water bath at 37° C. prior to experiment. Plasma is centrifuged at 4000 rpm for 5 min and the clots are removed if any. The pH is adjusted to 7.4±0.1 if required. 5 mM intermediate solutions of test compounds are prepared with DMSO. 1 mM intermediate solution of positive control Propantheline is prepared by diluting 5 μL of the stock solution with 45 μL ultra pure water. 1 mM intermediate solution of positive control Enalaprit is prepared by diluting 5 μL of the stock solution with 45 μL DMSO. 100 μM dosing solution is prepared by diluting 20 μL of the intermediate solution (1 mM) with 180 μL DMSO. For positive controls, 100 μM intermediate solution is prepared by diluting 20 μL of the stock solution with 180 μL 45% MeOH/H2O. […] 196 μL of blank plasma is spiked with 4 μL of dosing solution (100 μM) to achieve 2 μM of the final concentration in duplicate and samples are incubated at 37° C. in a water bath. At each time point (0, 1, 2, 4, 6 and 24 hr), 800 μL of stop solution (200 ng/mL tolbutamide, 200 ng/ML Labetalol in 50% MeOH/ACN) was added to precipitate protein and mixed thoroughly. Sample plates are centrifuged at 4,000 rpm for 10 min. An aliquot of supernatant (150 μL) is transferred from each well before submitting to LC-MS/MS analysis.
(§2) The percentage of test compound remaining at the individual time points relative to the 0 hour sample is calculated using following equation: Percent Remaining=100×(PAR at appointed incubation time/PAR at To time) where PAR is the peak area ratio of analyte versus internal standard (IS).
A short description of the next data set: Plasma stability (cyno). It counts as in vitro ADME. As to conditions: cynomolgus monkey, pH 7.4, 37° C., read-out: T1/2 (cyno).
Data set [2] in a line: in vitro. As to conditions: rat, plasma, pH 7.4.
Protocol: as §1, §2
A short description of data set [3]: in vitro. The note with it: mouse, plasma, pH 7.4.
Protocol: as §1, §2
Data set [4] is described as follows: in vitro. The note with it: male, CD-1, mouse, whole blood.
Protocol: CD-1 mouse blood (n >2,male, fasted overnight) is collected from animals housed at an internal facility. (EDTA-K2 is used as anticoagulant)
The test compounds and positive control stock solutions are prepared to 10 mM in DMSO or ultrapure water. […] The dosing solutions of test compounds and controls are prepared by diluting the stock solution with 45% MeOH/H2O to achieve 100 uM. Test compound solutions (final incubation concentration=2 μM) are incubated with blood (final DMSO concentration≤1%) at six different time points (0, 1, 2, 4, 6 and 24 hours) in duplicate (n=2). The reaction is terminated by adding 100 uL ultra-pure water, mixing well, then adding 800 uL of 100% methanol containing 200 ng/mL tolbutamide and 200 ng/mL labetalol as internal standards. Samples are then vortexed and centrifuged at 3200×g for 20 minutes. Following centrifugation, the concentration of test compound in the supernatant is determined semi-quantitatively by LC-MS/MS. The percentage of test compound remaining at the individual time points relative to the 0 hour sample is then reported. The percent remaining of test compound after incubation in blood is calculated using following equation: Percent Remaining=100×(PAR at appointed incubation time/PAR at To time) where PAR is the peak area ratio of analyte versus internal standard (IS).
For data set [5] the following is noted: 3 mg/kg IV, male CD-1 mice, plasma (FIG. 1).
Protocol: Male CD-1 mice were dosed with 3 mg/kg of Bicycle Conjugate formulated in 25 mM Histidine HCl, 10% sucrose pH 7 via tail vein injection. Serial bleeding (about 80 μL blood/time point) was performed via submadibular or saphenous vein at each time point. All blood samples were immediately transferred into prechilled microcentrifuge tubes containing 2 μL K2-EDTA (0.5M) as anti-coagulant and placed on wet ice. Blood samples were immediately processed for plasma by centrifugation at approximately +4° C., 3000 g. The precipitant including internal standard (350 uL) was immediately added into the 35 uL plasma sample, mixed well and centrifuged at 3220 g, +4° C. for 15 minutes. The supernatant was transferred into pre-labelled polypropylene microcentrifuge tubes, and then quick-frozen over dry ice. The samples were stored at −70° C. or below as needed until analysis. Supernatant samples were mixed with 50 uL water, vortexed well and centrifuged at 3220 g, +4° C. for 15 minutes. A sample of the supernatant was injected for LC-MS/MS analysis using an Acquity UPLC with AB Sciex 6500+Triple Quad MS in positive ion mode to determine the concentrations of Bicycle conjugate and released payload. Plasma concentration versus time data were analyzed by non-compartmental approaches using the Phoenix WinNonlin 6.3 software program. […]

The structures appear in SMILES notation. Starred links: 1 amine or outer side, 2 acyl side, 3 side chain; linkers in the order of their positions; H or OH if unused. Positions of bridges follow the written chain, without caps; N, C: chain ends. Non-standard residues stand in square brackets, D forms with d. Residues, ends and D or L forms follow the SMILES beside them. *: point of attachment. X1 = CC(C)[C@H](NC(=O)Cn1cc(CCC(=O)*)nn1)C(=O)N[C@@H](CCCNC(N)=O)C(=O)Nc1ccc(COC(=O)N(C)CCN(C)C(=O)O[C@@H]2[C@@H]3OP(=O)(O)OC[C@H]4O[C@@H](n5cnc6c(N)ncnc65)[C@H](O)[C@@H]4OP(=O)(O)OC[C@H]3O[C@H]2n2cnc3c(=O)[nH]c(N)nc32)cc1; X4 = CC(C)[C@H](NC(=O)Cn1cc(CCC(=O)*)nn1)C(=O)N[C@@H](CCCNC(N)=O)C(=O)Nc1ccc(COC(=O)NCCNC(=O)O[C@@H]2[C@@H]3OP(=O)(O)OC[C@H]4O[C@@H](n5cnc6c(N)ncnc65)[C@H](O)[C@@H]4OP(=O)(O)OC[C@H]3O[C@H]2n2cnc3c(=O)[nH]c(N)nc32)cc1; X5 = Nc1nc2c(ncn2[C@@H]2O[C@@H]3COP(=O)(O)O[C@H]4[C@@H](O)[C@H](n5cnc6c(N)ncnc65)O[C@@H]4COP(=O)(O)O[C@H]3[C@H]2OC(=O)NCCSSCCCC(=O)*)c(=O)[nH]1; X2 = Nc1nc2c(ncn2[C@@H]2O[C@@H]3COP(=O)(O)O[C@H]4[C@@H](O)[C@H](n5cnc6c(N)ncnc65)O[C@@H]4COP(=O)(O)O[C@H]3[C@H]2OC(=O)*)c(=O)[nH]1; X6 = Nc1ncnc2c1ncn2[C@@H]1O[C@@H]2COP(=O)(S)O[C@H]3[C@@H](OC(=O)*)[C@H](n4cnc5c(N)ncnc54)O[C@@H]3COP(=O)(S)O[C@H]2[C@H]1F; 1Nal = N[C@@H](Cc1cccc2ccccc12)C(=O)O; TBMB = c1c(C[*:1])cc(C[*:3])cc1C[*:2]; X3 = O=C(CCc1cn(CCCN[*:1])nn1)[*:2]; Tle = CC(C)(C)[C@H](N)C(=O)O; βAla = NCCC(=O)O; Sar = CNCC(=O)O

Protocol for Plasma stability (cyno): as §1, §2

Regarding `C[C@H](NC(=O)CN(C)C(=O)CN(C)C(=O)CN(C)C(=O)CN(C)C(=O)CN(C)C(=O)CN(C)C(=O)CN(C)C(=O)CN(C)C(=O)CN(C)C(=O)CN(C)C(=O)CCNC(=O)CCc1cn(CCCNC(=O)O[C@@H]2[C@@H]3OP(=O)(S)OC[C@H]4O[C@@H](n5cnc6c(N)ncnc65)[C@H](F)[C@@H]4OP(=O)(S)OC[C@H]3O[C@H]2n2cnc3c(N)ncnc32)nn1)C(=O)N[C@H]1CSCc2cc3cc(c2)CSC[C@H](NC(=O)[C@@H](C)NC(=O)[C@H](Cc2cccc4ccccc24)NC(=O)[C@H](CCC(=O)O)NC(=O)[C@H](CC(N)=O)NC(=O)[C@@H](C)NC1=O)C(=O)N[C@@H](CCC(=O)O)C(=O)N[C@@H](CC(=O)O)C(=O)N[C@@H](Cc1ccccc1)C(=O)N[C@@H](Cc1ccc(O)cc1)C(=O)N[C@@H](CC(=O)O)C(=O)N[C@@H](C(C)(C)C)C(=O)N[C@H](C(N)=O)CSC3` (stereo partly shown) [Conjugate 1 of Example 7.4] (X6-[X3][βAla][Sar][Sar][Sar][Sar][Sar][Sar][Sar][Sar][Sar][Sar]AC[dA]NE[1Nal][dA]CEDFYD[Tle]C-NH2; linker 14-20-27 via TBMB), the half-life at 2 μM was above 24 h in “in vitro [1]”, above 24 h in “Plasma stability (cyno)”, above 24 h in “in vitro [2]” and 6 to 24 h in the data set “in vitro [3]”.
Turning to `C[C@H](NC(=O)CN(C)C(=O)CN(C)C(=O)CN(C)C(=O)CN(C)C(=O)CN(C)C(=O)CN(C)C(=O)CN(C)C(=O)CN(C)C(=O)CN(C)C(=O)CN(C)C(=O)CCNC(=O)CCCSSCCNC(=O)O[C@@H]1[C@@H]2OP(=O)(O)OC[C@H]3O[C@@H](n4cnc5c(N)ncnc54)[C@H](O)[C@@H]3OP(=O)(O)OC[C@H]2O[C@H]1n1cnc2c(=O)[nH]c(N)nc21)C(=O)N[C@H]1CSCc2cc3cc(c2)CSC[C@H](NC(=O)[C@@H](C)NC(=O)[C@H](Cc2cccc4ccccc24)NC(=O)[C@H](CCC(=O)O)NC(=O)[C@H](CC(N)=O)NC(=O)[C@@H](C)NC1=O)C(=O)N[C@@H](CCC(=O)O)C(=O)N[C@@H](CC(=O)O)C(=O)N[C@@H](Cc1ccccc1)C(=O)N[C@@H](Cc1ccc(O)cc1)C(=O)N[C@@H](CC(=O)O)C(=O)N[C@@H](C(C)(C)C)C(=O)N[C@H](C(N)=O)CSC3` [I-64] ({X5-βAla}-[Sar][Sar][Sar][Sar][Sar][Sar][Sar][Sar][Sar][Sar]AC[dA]NE[1Nal][dA]CEDFYD[Tle]C-NH2; linker 12-18-25 via TBMB), the half-life at 2 μM in the data set “in vitro [1]”, in “Plasma stability (cyno)”, in the data set “in vitro [2]” and in the data set “in vitro [3]” was below 2 h each time.
In the case of `CC(C)[C@H](NC(=O)Cn1cc(CCC(=O)NCCC(=O)N(C)CC(=O)N(C)CC(=O)N(C)CC(=O)N(C)CC(=O)N(C)CC(=O)N(C)CC(=O)N(C)CC(=O)N(C)CC(=O)N(C)CC(=O)N(C)CC(=O)N[C@@H](C)C(=O)N[C@H]2CSCc3cc4cc(c3)CSC[C@H](NC(=O)[C@@H](C)NC(=O)[C@H](Cc3cccc5ccccc35)NC(=O)[C@H](CCC(=O)O)NC(=O)[C@H](CC(N)=O)NC(=O)[C@@H](C)NC2=O)C(=O)N[C@@H](CCC(=O)O)C(=O)N[C@@H](CC(=O)O)C(=O)N[C@@H](Cc2ccccc2)C(=O)N[C@@H](Cc2ccc(O)cc2)C(=O)N[C@@H](CC(=O)O)C(=O)N[C@@H](C(C)(C)C)C(=O)N[C@H](C(N)=O)CSC4)nn1)C(=O)N[C@@H](CCCNC(N)=O)C(=O)Nc1ccc(COC(=O)NCCNC(=O)O[C@@H]2[C@@H]3OP(=O)(O)OC[C@H]4O[C@@H](n5cnc6c(N)ncnc65)[C@H](O)[C@@H]4OP(=O)(O)OC[C@H]3O[C@H]2n2cnc3c(=O)[nH]c(N)nc32)cc1` [I-65] ({X4-βAla}-[Sar][Sar][Sar][Sar][Sar][Sar][Sar][Sar][Sar][Sar]AC[dA]NE[1Nal][dA]CEDFYD[Tle]C-NH2; linker 12-18-25 via TBMB), the half-life at 2 μM in the data set “in vitro [1]” is above 24 h; in the data set “Plasma stability (cyno)”, above 24 h; in “in vitro [2]”, above 24 h; in the data set “in vitro [3]”, 6 to 24 h.
Consider `C[C@H](NC(=O)CN(C)C(=O)CN(C)C(=O)CN(C)C(=O)CN(C)C(=O)CN(C)C(=O)CN(C)C(=O)CN(C)C(=O)CN(C)C(=O)CN(C)C(=O)CN(C)C(=O)CCNC(=O)CCc1cn(CCCNC(=O)O[C@@H]2[C@@H]3OP(=O)(O)OC[C@H]4O[C@@H](n5cnc6c(N)ncnc65)[C@H](O)[C@@H]4OP(=O)(O)OC[C@H]3O[C@H]2n2cnc3c(=O)[nH]c(N)nc32)nn1)C(=O)N[C@H]1CSCc2cc3cc(c2)CSC[C@H](NC(=O)[C@@H](C)NC(=O)[C@H](Cc2cccc4ccccc24)NC(=O)[C@H](CCC(=O)O)NC(=O)[C@H](CC(N)=O)NC(=O)[C@@H](C)NC1=O)C(=O)N[C@@H](CCC(=O)O)C(=O)N[C@@H](CC(=O)O)C(=O)N[C@@H](Cc1ccccc1)C(=O)N[C@@H](Cc1ccc(O)cc1)C(=O)N[C@@H](CC(=O)O)C(=O)N[C@@H](C(C)(C)C)C(=O)N[C@H](C(N)=O)CSC3` [I-66] (X2-[X3][βAla][Sar][Sar][Sar][Sar][Sar][Sar][Sar][Sar][Sar][Sar]AC[dA]NE[1Nal][dA]CEDFYD[Tle]C-NH2; linker 14-20-27 via TBMB), for which the “stability in mouse blood” value is given as “dramatic stability”. Also, the half-life at 2 μM in the data set “in vitro [1]” was above 24 h. The molecule further came in with a half-life at 2 μM in “in vitro [4]” of 6 to 24 h. The half-life at 2 μM in “Plasma stability (cyno)” is above 24 h. This molecule displayed a half-life at 2 μM in the data set “in vitro [2]” above 24 h. The same molecule came in with a half-life at 2 μM in “in vitro [3]” above 24 h.
With `CC(C)[C@H](NC(=O)Cn1cc(CCC(=O)NCCC(=O)N(C)CC(=O)N(C)CC(=O)N(C)CC(=O)N(C)CC(=O)N(C)CC(=O)N(C)CC(=O)N(C)CC(=O)N(C)CC(=O)N(C)CC(=O)N(C)CC(=O)N[C@@H](C)C(=O)N[C@H]2CSCc3cc4cc(c3)CSC[C@H](NC(=O)[C@@H](C)NC(=O)[C@H](Cc3cccc5ccccc35)NC(=O)[C@H](CCC(=O)O)NC(=O)[C@H](CC(N)=O)NC(=O)[C@@H](C)NC2=O)C(=O)N[C@@H](CCC(=O)O)C(=O)N[C@@H](CC(=O)O)C(=O)N[C@@H](Cc2ccccc2)C(=O)N[C@@H](Cc2ccc(O)cc2)C(=O)N[C@@H](CC(=O)O)C(=O)N[C@@H](C(C)(C)C)C(=O)N[C@H](C(N)=O)CSC4)nn1)C(=O)N[C@@H](CCCNC(N)=O)C(=O)Nc1ccc(COC(=O)N(C)CCN(C)C(=O)O[C@@H]2[C@@H]3OP(=O)(O)OC[C@H]4O[C@@H](n5cnc6c(N)ncnc65)[C@H](O)[C@@H]4OP(=O)(O)OC[C@H]3O[C@H]2n2cnc3c(=O)[nH]c(N)nc32)cc1` [I-68] ({X1-βAla}-[Sar][Sar][Sar][Sar][Sar][Sar][Sar][Sar][Sar][Sar]AC[dA]NE[1Nal][dA]CEDFYD[Tle]C-NH2; linker 12-18-25 via TBMB), the “stability in mouse blood” value is reported as “dramatic stability”. This molecule also registered a half-life at 2 μM in the data set “in vitro [1]” above 24 h. This molecule displayed a half-life at 2 μM in the data set “in vitro [4]” of 2 to 6 h. Moreover, the half-life at 2 μM in the data set “Plasma stability (cyno)” was above 24 h. In the data set “in vitro [2]”, this molecule displayed a half-life at 2 μM above 24 h. Also, in “in vitro [3]”, the half-life at 2 μM was 6 to 24 h. The systemic elimination entry in data set [5] was “rapid systemic elimination”.

These data come from patent US20200291096A1, “BICYCLIC PEPTIDE LIGAND STING CONJUGATES AND USES THEREOF” (priority 2017, published 2020).
